Results from publication PMC2796084 (Biochemistry, 2009).

Target: the molecule itself
Assay: tryptophan fluorescence

B1: FtsZ-L68W (natural protein, E. coli, UniProt P0A9A6 1-383, looked up)
chain: MFEPMELTNDAVIKVIGVGGGGGNAVEHMVRERIEGVEFFAVNTDAQALRKTAVGQTIQIGSGITKGWGAGANPEVGRNAADEDRDALRAALEGADMVFIAAGMGGGTGTGAAPVVAEVAKDLGILTVAVVTKPFNFEGKKRMAFAEQGITELSKHVDSLITIPNDKLLKVLGRGISLLDAFGAANDVLKGAVQGIAELITRPGLMNVDFADVRTVMSEMGYAMMGSGVASGEDRAEEAAEMAISSPLLEDIDLSGARGVLVNITAGFDLRLDEFETVGNTIRAFASDNATVVIGTSLDPDMNDELRVTVVATGIGMDKRPEITLVTNKQVQQPVMDRYQQHGMAPLTQEQKPVAKVVNDNAPQTAKEPDYLDIPAFLRKQAD
binding result: binds
